Assay results as given in patent US5942491A (priority 1996, dated 1999).
Entries after “also recorded” stand apart in the source; their conditions may differ. Where two headings read alike, the source gives them in different places. Where no end group is shown, it is not given here.

How the values were obtained:
[1] = system: adjuvant arthritis; format: in vivo, Lewis rats
[2] = system: adjuvant arthritis; set-up: species or system Lewis rats; conditions: rat, in vivo
[3] = system: adjuvant arthritis; experiment: Adjuvant-induced model of arthritis, summary statements on prevention and treatment; format: in vivo, Lewis rats; conditions: summary statement
[4] = system: adjuvant arthritis; conditions: for Development of experimental allergic encephalomyelitis (EAE): arthritogenic doses of CFA (Mb) combined with MBP

“FSWGAEGQR [EAE peptide, EAE peptide derived from MBP, reference compound]” was tested, and the “Effect on the course of pre-existing arthritis” value ([1]; rat, in vivo) was “somewhat effective”.

B1: OA: chicken ovalbumin (Sigma) (protein, UniProt P01012 2-386, looked up)
Ovalbumin: GSIGAASMEFCFDVFKELKVHHANENIFYCPIAIMSALAMVYLGAKDSTRTQINKVVRFDKLPGFGDSIEAQCGTSVNVHSSLRDILNQITKPNDVYSFSLASRLYAEERYPILPEYLQCVKELYRGGLEPINFQTAADQARELINSWVESQTNGIIRNVLQPSSVDSQTAMVLVNAIVFKGLWEKAFKDEDTQAMPFRVTEQESKPVQMMYQIGLFRVASMASEKMKILELPFASGTMSMLVLLPDEVSGLEQLESIINFEKLTEWTSSNVMEERKIKVYLPRMKMEEKYNLTSVLMAMGITDVFSSSANLSGISSAESLKISQAVHAAHAEINEAGREVVGSAEAGVDAASVSEEFRADHPFLFCIKHIATNAVLFFGRCVSP
For B1, the “Protective effect against induction of adjuvant arthritis” value [2] was “very significant protective effects against induction of adjuvant arthritis; also recorded: protective”.

B2: BP: Porcine myelin basic protein (Lilly) (protein, UniProt P81558 1-171, looked up)
Myelin basic protein: ASQKRPSQRHGSKYLASASTMDHARHGFLPRHRDTGIDSLGRFFGADRGAPKRGSGKDGHHAARTTHYGSLPQKAQHGRPQDENPVVHFFKNIVTPRTPPPSQGKGRGLSLSRFSWGAEGQKPGFGYGGRAPDYKPAHKGLKGAQDAQGTLSKIFKLGGRDSRSGSPMARR
In the case of B2, the “Effect on the course of pre-existing arthritis” value ([1]; rat, in vivo) is reported as “marked effect on the course of the arthritis, reducing the clinical severity of the disease”, the Remission of arthritis ([1]; rat, in vivo) is reported as “complete remission in all three animals tested” and the “Anti-arthritic activity after storage” value ([1]; solvated and kept in refrigerator at 4 degrees centigrade for three months) is reported as “no activity”. For the same molecule, the “Protective effect against induction of adjuvant arthritis” value [2] was “minimal protective effects that were of limited clinical value”, the “Prevention and suppression/treatment of arthritis (summary in words)” value ([3]; listed as MBP) was “prevent and suppress arthritis” and the “Prevention and suppression/treatment of arthritis (summary in words)” value ([3]; listed as pMBP) was “appear to protect against and to effectively treat pre-existing arthritis clinical symptoms”. For the same molecule, the “Development of experimental allergic encephalomyelitis (EAE)” value [4] was “developed experimental allergic encephalomyelitis (EAE)”, the “Development of experimental allergic encephalomyelitis (EAE)” value ([4]; listed as MBP) was “All six animals developed EAE” and the “A. Number of animals inoculated/number of animals with arthritis” value ([4]; rat, in vivo) was 0/6. For the same molecule, the “C. Average day of onset of arthritis” value ([4]; rat, in vivo) was 0 days, the “D. Average duration of symptoms” value ([4]; rat, in vivo) was 0 days and the “Effect of co-inoculation with FCA on arthritis (in words)” value ([4]; rat, in vivo) was “did not develop any symptoms of arthritis over a period of 2 months”. For the same molecule, the “Effect of co-inoculation with FCA on arthritis (in words)” value ([4]; rat, in vivo, listed as MBP) was “none had any clinical signs or arthritis”.
